# Assay results from a protein production outcome set (Wang et al. 2014).
# Assay: label from the status in PepcDB records
row,Sequence,protein production
1,AADQVLELVRPFLEELRNISQETAVLGKRQDGQVIYLDVALSHQPIRYHVQVGESRAAHTNSIGKAIFPMLDEKEQKALLAKANWRALTSRTIATREAFLRDMAQTKARGWSSNVGESVEDLAAVALPFQLASEWYAVSIVGPYERMERNWDAHVETLLQTGARLRQAIAVHEGQ,failed
2,AALVRQHLDALPAASVPDLPAMARLLCTSVRTLKRRLQEEGTCYRQVLAGHRGARALELLGNPRLSLSQVAERLGFSDLSSFSQSFKRWFGVAPSVYRQERCG,failed
3,AASEAEYGKVSKAWTLHADGSQEYRSSMELTLFTHTAMNSTYGESFIVYNPDFQTLKIHSSYTRQKDGTIVKTPDNAFVEVLPRFAADAPAYNQLKEMVVVHTGLELGATIYLDYSIITKPGYYPALDINERLQETSPVKECKVSISVPEGTPLACGLYGSPVKAVEESHDGIKEVHWTLRNIPASSREAFQPKNREASPHLVASTYPSGKAALATLDKRLKESQGYESKTFAQFLTDKSGNEQEKVNIIRDHILNNLSTCPIPMAMTGYTVRDIDTVLRSAYGTPLEIAQLLNVMLNAAGIPSEVLAVYPGHLDTDACGLAAIQTLAVKATVDGKDQYLSASPLTNRGGLDKVVSLSGTSIEIETTPIQIKESRSVAISADQAKDGFAICVLPAISAGIDSWGMSALNSKRSNLFELPSLIREEVTYTVTPAEGMKLQTSTQEQVISKPFGKVTRTITPRGNTIEVVRTIELNKQQFTPAEYSDVRSLIHEWTNPDNRVLLFSL,not failed
4,AEIFTTLSCEPDIPNPPRIANRTKNSLTLQWKAPSDNGSKIQNFVLEWDEGKGNGEFCQCYMGSQKQFKITKLSPAMGCKFRLSARNDYGTSGFSEEVLYYTSGC,not failed
5,AHAPQRISGLALFDPAGVEAPETSDLQHLLEQGKNPFLVRSRADFQHFYSLTMAAPPWVPEAVLAAIAERYQARRGQLARIFAELQASPPMEPELAKIQAPTLLLWGREDRLLHPSSAQVWAKGLPQAQVQLWEGIGHMPMVERPVRSARLYQQFLER,failed
6,AIAAASLGEFEWCVATNTFRISPRLAKLSGIPEGELDSQGGNALYAYIHPDDREAVRANIDRQLAQSGRFTAEYRRTPLEHGGETWNSVAGVMLMDADGQPSRLIGVVQDITPRKL,failed
7,AIADSKSHGWLIGANGTILETHDGGEHWEPRTFDFLRMDEEINYRFESISCYGNEGWIVGKPPILLHTQNGGKDWERIPLSSKLPGEPVLITALGPNRAELATTAGAIYTTDNGGKNWKALVKETIDATLNRTTSSGVTGASYYTGTVISITRDCNGYYLAISSRGNFYVTWHPGQEYWTPHPRDSSRRIQSMGFVQNDIHKGLWMANNGGFLGFSPPNPSLDTVSSIPFQRVDIRTGGYGILDVAFHQQKRNEVWASVGSGILYRSFDGGKHWEKDPWLDHLGSVLYRIKFVENSGFILGAKGTLLRYNG,not failed
8,AIAKLPISTISPIHYMKSVVSSRETRNESNKSRRTFASTEWNKIIRETLYLETVYIPVDATSHSPDIIFKLQSPVEPKVLTVGVACKGRWKSEGIGWSDIIDEAKKFLDPVYDQVLSSAMDYHHCMLIIVSTKLSLNVSNELGNQSRCYSSGMFIGGDSFKVPDNCELVILCERDVQMLIDKEILNGLERAFCVSHNPTFWDFGLDLLDRIRNSFLSWQ,failed
9,AIANDDRATAFNALKNKTVCVQGDGNSRQFYHALVEILSNHSSAIPVNKNGNDFCNAPFAQCPQDTYYFDLVDKSDNLSVKLYWRWAPEFSDIECPMKVPSGFTPGSNYSFPSGPDTLSCDINIMDAGQWELFEKDANVTTAGYSQGVSNLSKCFSSDKSAKYFWIAAYALTPEQLQIHLPYNNTDVERINEVATQGLNSTACVLNGYDVTVNAFNDTKEATTDGIHYLGWINEQVVHLFFNAVTNSSAPTVPSSNVSVTSPNVQLGQVPNLNPSTTNSFLPVQTIVTVPSSSATSASSGLNFGGSSQGGGSGIPQL,failed
10,AIASQFDPDKFKQEQKARWNQGARSTWTLWKQTQVEDTPAKFFLGLVPIRPGVKVLDLACGSGETSLQVAQLVSSHLPSDSKDAKIVCVDISEEMLRVLSQRAQELGLSSVVETCCEDAENINFGTHYFDMVMSQFGVMFLPHLPEDLANIRKMMKPGSLFCCVVWGEEKDCHIFYAARSVVSPPPPPPGTPVSYGTKEKVMEALRKAEFSDVKAVEFQVVHETKDAEEYITLMSGVNQWLEKSLGEKGSGPWQKLVEYCNNSYRTSRGTLQFPNVCVGITAIA,failed
11,AIDVSAKSAIIIDGASGRVLYAKDEHQKRRIASITKIMTAVLAIESGKMDQTVTVSANAVRTEGSAIYLTEGQKVKLKDLVYGLMLRSGNDAAVAIAEHVGGSLDGFVYMMNQKAEQLGMKNTRFQNPHGLDDHENHYSTAYDMAILTKYAMKLKDYQKISGTKIYKAETMESVWKNKNKLLTMLYPYSTGGKTGYTKLAKRTLVSTASKDGIDLIAVTINDPNDWDDHMKMFNYVFEHYQTYLIAKKGDIPKLKGTFYESKAFIKRDITYLLTEEEKENVKINTTLLKPKKAWEKDASKIPDIVGHMEIMFNDATIAKVPIYYENERHQK,not failed
12,ALAETVSDFRLPNGLEVVVIEDHRAPVVTHMVWYRVGAADEPPGHSGIAHFLEHLMFKGTDEMSAGEFSATVEAQGGDDNAFTSWDYTAYFQRVAADRLDLMMKMEADRMRDLQMTEEDVRTERQVVLEERSQRTDSDPGAVFSEQSRAAAYLNHPYGIPIIGWRHEIEQLGREDAFSFYRTYYAPNNAILVVAGDVDPAEVRRMAEEHYGALEPTP,failed
13,ALLQTPEFVEEFILDRTMNPAVREFGYEELKMIDPTCGSGHFVLGAFRRLVRLGGENQPGKDVHQRVRAALDSVHGVDINPFAVAIARFRLLVAAMAASGVRTLDEASKYEWPVHLAVGDSLIKSGSQQGSLFGESDDDLTDELAEFKYATEDVGEHPEMLRPGRYHVVVGNPPYITVKDKSLNALYRELYPACAGKYALSVPFAQRFFELAKREDAEGSGYGMVGQITANSFMKREFGTKLIEGYFGHAVELTEVIDTSGAYIPGHGTPTVILVGTRRGGDGR,failed
14,ALRTELGLNVSGGGKTNQYYFSAGYLNDKGIALESGYERFNLRSNVTSQMTKWLRGGVNMSFAHSLQNYPVSSDTKTSNVINAGRLMNGFYPIYQMNEDGTYKLDSEGQRMYDFGSYRPSGSMANWNLPATLPNDKSERMKDEFSGRTFLEVTFIEGLKFKTSFNFDLINYNSLDYTNPKIGPAVNTGGSSSRENDRTFSWTWNNILTYDKTLGEHHFNLLAGQEAYSYRYDVLRASRSNMALPDFPELAVGSLVTGGTGYRVDYSLVGYFLNAQYDYQSKYFFSGSYRRDGSSRFAPETRWGNFWSVGASWRIDREDFMVAASDWLSALTLKVSYGAQGNDNLGTYYASSGLYSVVSNNGENALVSDRLATPKLKWETNLNFNAGIDFSLFNNRFSGSFDFFQRRSKDLLYSRPLAPSLGYNSVDENVGELKNTGVEIDLKGTLIHTRDFMWRLGLNLTHYKNVVTDLPLKDMP,failed
15,ANKKIDHREEAIELLKQDAKRILQLIKVQMDNLTLPQCPAYEEVLDTQMYGLSREINFATRLGLIEPEEGKKLISTLEKELSALHELSMSK,failed
16,ANLISPVCDMGSAVTAPVYAAILAYRDAVTQILGAPADFAQMMADEAISQILDLMRNEGIKNMEDKLNPKALTGTADSMCFGPLADILPASLKVLEKHANENKCECGCSIKP,failed
17,APEERDLTQEQTEKLLQFQDLTGIESMDQCRHTLEQHNWNIEAAVQDRLNEQEG,not failed
18,APHGPGLIYRQPNCDDPETEEAALVAIDYINQNLPWGYKHTLNQIDEVKVWPQQPSGELFEIEIDTLETTCHVLDPTPVARCSVR,failed
19,APLYIKVHEIDNTAIIVNDGGLPKGTVFSCGLVLEEDVPQGHKVALTDLNQGDEIVRYGEVIGFADETIKRGSWIREALVRMPAP,not failed
20,APTSSNDTGKTVVAVTACPTGIAHTYMAAEKLQETANKLGVRIKVETNGSRGVENRLTDKEIAEADGVIIAADVQVDMPRFDGKHLIAKPVAAGIHKPEELIKEAISGNAPVYKAESGSEATEST,not failed
